This note sets out measurements from article PMC11651300 (Journal of the American Society for Mass Spectrometry, 2024).

What is called stoichiometry N is a count of units in the complex or per binding partner.

For series [1], the target named is Pyruvate kinase from rabbit (rabbit) (UniProt P11974). In words: native MS.
The series “native MS” deals with the molecule itself. The series is described as follows: native MS.

“Pyruvate kinase from rabbit (from UniProt P11974 1-531) (enzyme)” showed a stoichiometry N in series [1] of 4.

B1: Cholera toxin B (natural protein)
chain: TPQNITDLCAEYHNTQIYTLNDKIFSYTESLAGKREMAIITFKNGAIFQVEVPGSQHIDSQKKAIERMKDTLRIAYLTEAKVEKLCVWNNKTPHAIAAISMAN
Regarding B1, in the series “native MS”, the “stoichiometry N” value is 5.
